Assay results from US7067277B1, “Chimeric G proteins and uses thereof” (H. Lundbeck A/S, priority 1999, dated 2006).

Key:
Assay in all cases: Calcium mobilization (FLIPR, Fluo-3) in transfected COS-7 cells
Type in all cases: cell-based
[1] = target: T1, h 5HT1F (Homo sapiens, UniProt P30939); conditions: h 5HT1F + chimera in COS-7; agonist 5HT, max 100 μM
T1 sequence (P30939 1-366): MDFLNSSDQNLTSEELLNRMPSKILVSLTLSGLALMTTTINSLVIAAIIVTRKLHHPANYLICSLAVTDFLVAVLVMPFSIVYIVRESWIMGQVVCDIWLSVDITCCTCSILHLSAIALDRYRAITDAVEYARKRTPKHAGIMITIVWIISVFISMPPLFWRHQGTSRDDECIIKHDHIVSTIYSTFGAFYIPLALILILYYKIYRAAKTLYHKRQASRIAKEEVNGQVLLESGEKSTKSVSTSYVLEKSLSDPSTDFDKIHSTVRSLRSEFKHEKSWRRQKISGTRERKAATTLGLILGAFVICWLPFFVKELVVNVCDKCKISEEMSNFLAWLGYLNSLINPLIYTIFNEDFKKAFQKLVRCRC
Procedure, shortened: (§1)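 First, COS-7 cells receive GPCR and chimeric G protein cDNA by DEAE-dextran transfection. Agonist responses are finally recorded by FLIPR for 3 min at room temperature.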

[2] = target: h 5HT6 (Homo sapiens, UniProt P50406); conditions: h 5HT6 + chimera in COS-7; agonist 5HT, max 100 μM
Procedure, shortened: as §1

[3] = target: T2, h NPFF2 (Homo sapiens, UniProt Q9Y5X5); conditions: h NPFF2 + chimera in COS-7; agonist NPFF, max 10 μM
T2 construct: expressed in transfected cells; host or cells: COS-7
Procedure, shortened: as §1

[4] = target: T3, h α2B adr (Homo sapiens, UniProt P18089); conditions: h α2B adr + chimera in COS-7; agonist NE, max 100 μM
T3 construct: expressed in transfected cells; host or cells: COS-7
T3 sequence (P18089 1-450): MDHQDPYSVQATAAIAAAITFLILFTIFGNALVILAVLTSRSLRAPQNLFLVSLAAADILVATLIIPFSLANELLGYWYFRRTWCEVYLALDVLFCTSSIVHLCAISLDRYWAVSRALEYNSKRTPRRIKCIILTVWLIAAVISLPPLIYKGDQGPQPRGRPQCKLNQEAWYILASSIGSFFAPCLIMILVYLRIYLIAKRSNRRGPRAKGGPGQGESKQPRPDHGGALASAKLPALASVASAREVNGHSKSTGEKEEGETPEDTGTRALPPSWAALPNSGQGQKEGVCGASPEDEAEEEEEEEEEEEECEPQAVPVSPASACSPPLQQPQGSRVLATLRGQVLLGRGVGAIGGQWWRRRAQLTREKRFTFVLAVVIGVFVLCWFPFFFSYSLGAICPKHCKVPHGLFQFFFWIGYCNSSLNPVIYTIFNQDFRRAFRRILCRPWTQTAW
Procedure, shortened: as §1

[5] = target: T4, r GALR2 (Rattus norvegicus, UniProt O08726); conditions: r GALR2 + chimera in COS-7; agonist GAL, max 10 μM
T4 construct: expressed in transfected cells; host or cells: COS-7
T4 sequence (O08726 1-372): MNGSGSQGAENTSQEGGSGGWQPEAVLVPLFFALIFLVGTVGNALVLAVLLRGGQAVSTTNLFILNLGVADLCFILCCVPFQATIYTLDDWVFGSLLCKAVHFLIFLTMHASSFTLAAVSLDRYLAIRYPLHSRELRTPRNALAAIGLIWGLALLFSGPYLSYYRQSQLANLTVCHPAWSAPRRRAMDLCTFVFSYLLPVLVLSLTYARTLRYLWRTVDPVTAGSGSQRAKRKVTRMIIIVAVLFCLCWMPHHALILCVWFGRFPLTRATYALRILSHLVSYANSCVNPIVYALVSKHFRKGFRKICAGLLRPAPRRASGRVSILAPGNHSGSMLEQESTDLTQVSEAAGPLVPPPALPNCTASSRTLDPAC
Procedure, shortened: as §1

[6] = target: r Y4 (Rattus norvegicus, UniProt Q63447); conditions: r Y4 + chimera in COS-7; agonist PP, max 10 μM
Procedure, shortened: as §1

T2 sequence (Q9Y5X5 103-522 limits assumed): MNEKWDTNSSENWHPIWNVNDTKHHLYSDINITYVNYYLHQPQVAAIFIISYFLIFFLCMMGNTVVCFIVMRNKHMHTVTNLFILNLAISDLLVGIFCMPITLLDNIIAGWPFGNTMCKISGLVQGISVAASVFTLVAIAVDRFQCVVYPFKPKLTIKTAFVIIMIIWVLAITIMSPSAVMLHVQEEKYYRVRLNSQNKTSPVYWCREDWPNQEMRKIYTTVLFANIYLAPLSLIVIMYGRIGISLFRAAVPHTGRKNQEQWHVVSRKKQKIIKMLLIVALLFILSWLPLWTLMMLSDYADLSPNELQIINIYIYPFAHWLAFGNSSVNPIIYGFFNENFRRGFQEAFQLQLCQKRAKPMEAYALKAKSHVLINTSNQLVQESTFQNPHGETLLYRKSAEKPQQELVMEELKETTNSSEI
Chain of r Y4 (Q63447 whole entry): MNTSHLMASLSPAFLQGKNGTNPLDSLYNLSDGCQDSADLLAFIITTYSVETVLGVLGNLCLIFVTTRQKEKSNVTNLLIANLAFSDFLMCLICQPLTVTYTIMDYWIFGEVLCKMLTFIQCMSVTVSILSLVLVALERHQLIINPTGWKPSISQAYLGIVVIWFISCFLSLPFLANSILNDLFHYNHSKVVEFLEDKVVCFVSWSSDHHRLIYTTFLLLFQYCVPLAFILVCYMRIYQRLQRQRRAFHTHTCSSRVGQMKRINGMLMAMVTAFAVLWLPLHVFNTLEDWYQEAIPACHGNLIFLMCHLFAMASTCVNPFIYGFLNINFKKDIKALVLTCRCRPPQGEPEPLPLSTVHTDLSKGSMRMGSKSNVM
Chain of h 5HT6 (P50406 whole entry): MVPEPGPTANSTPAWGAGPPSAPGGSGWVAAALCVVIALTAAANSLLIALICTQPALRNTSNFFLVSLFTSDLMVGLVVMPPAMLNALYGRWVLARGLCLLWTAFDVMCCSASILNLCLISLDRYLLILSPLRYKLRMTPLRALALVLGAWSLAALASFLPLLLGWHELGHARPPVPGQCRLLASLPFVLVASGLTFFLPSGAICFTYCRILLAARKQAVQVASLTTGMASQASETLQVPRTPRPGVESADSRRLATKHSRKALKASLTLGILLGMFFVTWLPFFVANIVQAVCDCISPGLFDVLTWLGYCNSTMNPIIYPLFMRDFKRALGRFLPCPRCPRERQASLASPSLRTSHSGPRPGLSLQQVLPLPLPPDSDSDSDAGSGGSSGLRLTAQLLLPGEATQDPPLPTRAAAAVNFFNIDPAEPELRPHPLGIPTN

Molecule | MAXIMAL SIGNAL (FLUORESCENCE UNITS) [1] | MAXIMAL SIGNAL (FLUORESCENCE UNITS) [2] | MAXIMAL SIGNAL (FLUORESCENCE UNITS) [3] | MAXIMAL SIGNAL (FLUORESCENCE UNITS) [4] | MAXIMAL SIGNAL (FLUORESCENCE UNITS) [5] | MAXIMAL SIGNAL (FLUORESCENCE UNITS) [6]
cGαq/z5: chimeric Gα subunit: C-terminal final 5 amino acids of C. elegans Gαq replaced with those of hGαz (SEQ ID NO: 1) (protein, C. elegans) MACCLSEEAREQKRINQEIEKQLQRDKRNARRELKLLLLGTGESGKSTFIKQMRIIHGQGYSEEDKRAHIRLVYQNVFMAIQSMIRAMDTLDIKFGNESEELQEKAAVVREVDFESVTSFEEPYVSYIKELWEDSGIQECYDRRREYQLTDSAKYYLSDLRRLAVPDYLPTEQDILRVRVPTTGIIEYPFDLEQIIFRMVDVGGQRSERRKWIHCFENVTSIMFLVALSEYDQVLVECDNENRMEESKALFRTIITYPWFTNSSVILFLNKKDLLEEKILYSHLADYFPEYDGPPRDPIAAREFILKMFVDLNPDADKIIYSHFTCATDTENIRFVFAAVKDTILQHNLKYIGLC | 243 fluorescence units | 1289 fluorescence units | 7566 fluorescence units | 4983 fluorescence units | 4198 fluorescence units | 3662 fluorescence units
cGαq/z9: C. elegans Gαq with Gαz portion of the C-terminal tail extended to 9 amino acids (SEQ ID NO: 2) (protein, C. elegans) MACCLSEEAREQKRINQEIEKQLQRDKRNARRELKLLLLGTGESGKSTFIKQMRIIHGQGYSEEDKRAHIRLVYQNVFMAIQSMIRAMDTLDIKFGNESEELQEKAAVVREVDFESVTSFEEPYVSYIKELWEDSGIQECYDRRREYQLTDSAKYYLSDLRRLAVPDYLPTEQDILRVRVPTTGIIEYPFDLEQIIFRMVDVGGQRSERRKWIHCFENVTSIMFLVALSEYDQVLVECDNENRMEESKALFRTIITYPWFTNSSVILFLNKKDLLEEKILYSHLADYFPEYDGPPRDPIAAREFILKMFVDLNPDADKIIYSHFTCATDTENIRFVFAAVKDTILQNNLKYIGLC | 384 fluorescence units | 2287 fluorescence units | 4578 fluorescence units | 5138 fluorescence units | 4470 fluorescence units | 2583 fluorescence units
